Values quoted from earlier work in publication PMC8667759.

Legend:
Piezo1 = Piezo1 (UniProt E2JF22)
Cav3 = Cav3 (UniProt O43497)
Sequence of UniProt O43497 (O43497 whole entry): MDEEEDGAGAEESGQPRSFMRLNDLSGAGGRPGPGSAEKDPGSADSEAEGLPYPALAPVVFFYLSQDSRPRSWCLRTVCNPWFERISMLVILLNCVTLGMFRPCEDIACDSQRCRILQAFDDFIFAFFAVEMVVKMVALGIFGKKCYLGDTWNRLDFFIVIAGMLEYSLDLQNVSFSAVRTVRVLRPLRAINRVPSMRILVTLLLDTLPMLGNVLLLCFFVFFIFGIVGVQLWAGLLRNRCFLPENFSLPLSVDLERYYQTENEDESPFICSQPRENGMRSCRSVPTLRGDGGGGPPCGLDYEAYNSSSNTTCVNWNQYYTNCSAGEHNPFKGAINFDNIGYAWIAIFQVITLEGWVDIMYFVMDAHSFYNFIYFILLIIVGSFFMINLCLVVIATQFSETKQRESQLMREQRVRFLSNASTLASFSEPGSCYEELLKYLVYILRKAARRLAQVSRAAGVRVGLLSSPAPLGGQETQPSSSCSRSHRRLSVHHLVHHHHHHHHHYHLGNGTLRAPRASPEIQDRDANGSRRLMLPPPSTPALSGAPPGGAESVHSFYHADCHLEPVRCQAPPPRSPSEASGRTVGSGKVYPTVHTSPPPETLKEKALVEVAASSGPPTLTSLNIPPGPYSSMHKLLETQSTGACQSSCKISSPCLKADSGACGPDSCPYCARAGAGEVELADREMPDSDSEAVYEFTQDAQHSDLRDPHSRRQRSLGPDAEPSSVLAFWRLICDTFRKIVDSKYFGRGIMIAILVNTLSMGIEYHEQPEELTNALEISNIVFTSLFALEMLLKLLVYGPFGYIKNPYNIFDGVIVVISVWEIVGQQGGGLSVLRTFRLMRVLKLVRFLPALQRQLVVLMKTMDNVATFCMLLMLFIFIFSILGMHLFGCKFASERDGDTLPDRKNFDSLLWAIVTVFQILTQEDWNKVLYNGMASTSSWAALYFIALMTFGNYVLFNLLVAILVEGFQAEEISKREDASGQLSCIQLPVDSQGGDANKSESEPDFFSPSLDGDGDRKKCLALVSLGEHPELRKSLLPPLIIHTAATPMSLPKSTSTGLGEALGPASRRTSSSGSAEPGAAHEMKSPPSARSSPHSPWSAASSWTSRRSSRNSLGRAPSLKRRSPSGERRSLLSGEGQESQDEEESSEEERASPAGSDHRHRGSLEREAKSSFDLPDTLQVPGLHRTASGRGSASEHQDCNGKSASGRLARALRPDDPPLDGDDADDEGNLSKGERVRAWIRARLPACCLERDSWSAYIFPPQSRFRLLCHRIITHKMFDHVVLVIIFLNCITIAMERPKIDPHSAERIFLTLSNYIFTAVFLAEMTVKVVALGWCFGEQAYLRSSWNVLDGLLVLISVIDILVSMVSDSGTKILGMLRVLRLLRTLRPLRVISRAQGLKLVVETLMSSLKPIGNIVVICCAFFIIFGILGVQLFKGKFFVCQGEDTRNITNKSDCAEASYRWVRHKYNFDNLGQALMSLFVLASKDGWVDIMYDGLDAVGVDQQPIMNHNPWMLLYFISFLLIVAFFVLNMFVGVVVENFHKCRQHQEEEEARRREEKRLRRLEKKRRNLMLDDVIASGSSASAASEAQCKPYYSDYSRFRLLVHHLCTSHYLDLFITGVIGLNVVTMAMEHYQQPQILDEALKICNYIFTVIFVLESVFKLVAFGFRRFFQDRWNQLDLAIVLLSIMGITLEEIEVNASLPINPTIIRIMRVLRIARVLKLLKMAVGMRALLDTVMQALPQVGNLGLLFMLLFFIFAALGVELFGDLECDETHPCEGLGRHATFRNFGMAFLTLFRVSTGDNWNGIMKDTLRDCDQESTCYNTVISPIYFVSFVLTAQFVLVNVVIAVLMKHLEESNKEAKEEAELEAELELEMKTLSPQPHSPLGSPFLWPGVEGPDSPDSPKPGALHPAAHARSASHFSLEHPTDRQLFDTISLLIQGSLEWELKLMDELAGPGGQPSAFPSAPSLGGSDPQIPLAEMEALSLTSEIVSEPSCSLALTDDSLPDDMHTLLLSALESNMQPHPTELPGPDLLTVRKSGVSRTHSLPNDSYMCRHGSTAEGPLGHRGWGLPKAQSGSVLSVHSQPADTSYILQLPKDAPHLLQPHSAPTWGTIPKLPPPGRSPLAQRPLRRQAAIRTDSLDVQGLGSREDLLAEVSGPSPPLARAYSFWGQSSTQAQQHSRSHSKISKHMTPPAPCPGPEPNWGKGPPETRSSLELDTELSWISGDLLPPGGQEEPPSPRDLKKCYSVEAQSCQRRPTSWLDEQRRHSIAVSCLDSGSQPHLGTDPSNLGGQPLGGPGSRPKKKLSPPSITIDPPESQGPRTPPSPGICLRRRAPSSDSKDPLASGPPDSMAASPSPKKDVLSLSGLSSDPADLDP

Sequence of UniProt E2JF22 (E2JF22 whole entry): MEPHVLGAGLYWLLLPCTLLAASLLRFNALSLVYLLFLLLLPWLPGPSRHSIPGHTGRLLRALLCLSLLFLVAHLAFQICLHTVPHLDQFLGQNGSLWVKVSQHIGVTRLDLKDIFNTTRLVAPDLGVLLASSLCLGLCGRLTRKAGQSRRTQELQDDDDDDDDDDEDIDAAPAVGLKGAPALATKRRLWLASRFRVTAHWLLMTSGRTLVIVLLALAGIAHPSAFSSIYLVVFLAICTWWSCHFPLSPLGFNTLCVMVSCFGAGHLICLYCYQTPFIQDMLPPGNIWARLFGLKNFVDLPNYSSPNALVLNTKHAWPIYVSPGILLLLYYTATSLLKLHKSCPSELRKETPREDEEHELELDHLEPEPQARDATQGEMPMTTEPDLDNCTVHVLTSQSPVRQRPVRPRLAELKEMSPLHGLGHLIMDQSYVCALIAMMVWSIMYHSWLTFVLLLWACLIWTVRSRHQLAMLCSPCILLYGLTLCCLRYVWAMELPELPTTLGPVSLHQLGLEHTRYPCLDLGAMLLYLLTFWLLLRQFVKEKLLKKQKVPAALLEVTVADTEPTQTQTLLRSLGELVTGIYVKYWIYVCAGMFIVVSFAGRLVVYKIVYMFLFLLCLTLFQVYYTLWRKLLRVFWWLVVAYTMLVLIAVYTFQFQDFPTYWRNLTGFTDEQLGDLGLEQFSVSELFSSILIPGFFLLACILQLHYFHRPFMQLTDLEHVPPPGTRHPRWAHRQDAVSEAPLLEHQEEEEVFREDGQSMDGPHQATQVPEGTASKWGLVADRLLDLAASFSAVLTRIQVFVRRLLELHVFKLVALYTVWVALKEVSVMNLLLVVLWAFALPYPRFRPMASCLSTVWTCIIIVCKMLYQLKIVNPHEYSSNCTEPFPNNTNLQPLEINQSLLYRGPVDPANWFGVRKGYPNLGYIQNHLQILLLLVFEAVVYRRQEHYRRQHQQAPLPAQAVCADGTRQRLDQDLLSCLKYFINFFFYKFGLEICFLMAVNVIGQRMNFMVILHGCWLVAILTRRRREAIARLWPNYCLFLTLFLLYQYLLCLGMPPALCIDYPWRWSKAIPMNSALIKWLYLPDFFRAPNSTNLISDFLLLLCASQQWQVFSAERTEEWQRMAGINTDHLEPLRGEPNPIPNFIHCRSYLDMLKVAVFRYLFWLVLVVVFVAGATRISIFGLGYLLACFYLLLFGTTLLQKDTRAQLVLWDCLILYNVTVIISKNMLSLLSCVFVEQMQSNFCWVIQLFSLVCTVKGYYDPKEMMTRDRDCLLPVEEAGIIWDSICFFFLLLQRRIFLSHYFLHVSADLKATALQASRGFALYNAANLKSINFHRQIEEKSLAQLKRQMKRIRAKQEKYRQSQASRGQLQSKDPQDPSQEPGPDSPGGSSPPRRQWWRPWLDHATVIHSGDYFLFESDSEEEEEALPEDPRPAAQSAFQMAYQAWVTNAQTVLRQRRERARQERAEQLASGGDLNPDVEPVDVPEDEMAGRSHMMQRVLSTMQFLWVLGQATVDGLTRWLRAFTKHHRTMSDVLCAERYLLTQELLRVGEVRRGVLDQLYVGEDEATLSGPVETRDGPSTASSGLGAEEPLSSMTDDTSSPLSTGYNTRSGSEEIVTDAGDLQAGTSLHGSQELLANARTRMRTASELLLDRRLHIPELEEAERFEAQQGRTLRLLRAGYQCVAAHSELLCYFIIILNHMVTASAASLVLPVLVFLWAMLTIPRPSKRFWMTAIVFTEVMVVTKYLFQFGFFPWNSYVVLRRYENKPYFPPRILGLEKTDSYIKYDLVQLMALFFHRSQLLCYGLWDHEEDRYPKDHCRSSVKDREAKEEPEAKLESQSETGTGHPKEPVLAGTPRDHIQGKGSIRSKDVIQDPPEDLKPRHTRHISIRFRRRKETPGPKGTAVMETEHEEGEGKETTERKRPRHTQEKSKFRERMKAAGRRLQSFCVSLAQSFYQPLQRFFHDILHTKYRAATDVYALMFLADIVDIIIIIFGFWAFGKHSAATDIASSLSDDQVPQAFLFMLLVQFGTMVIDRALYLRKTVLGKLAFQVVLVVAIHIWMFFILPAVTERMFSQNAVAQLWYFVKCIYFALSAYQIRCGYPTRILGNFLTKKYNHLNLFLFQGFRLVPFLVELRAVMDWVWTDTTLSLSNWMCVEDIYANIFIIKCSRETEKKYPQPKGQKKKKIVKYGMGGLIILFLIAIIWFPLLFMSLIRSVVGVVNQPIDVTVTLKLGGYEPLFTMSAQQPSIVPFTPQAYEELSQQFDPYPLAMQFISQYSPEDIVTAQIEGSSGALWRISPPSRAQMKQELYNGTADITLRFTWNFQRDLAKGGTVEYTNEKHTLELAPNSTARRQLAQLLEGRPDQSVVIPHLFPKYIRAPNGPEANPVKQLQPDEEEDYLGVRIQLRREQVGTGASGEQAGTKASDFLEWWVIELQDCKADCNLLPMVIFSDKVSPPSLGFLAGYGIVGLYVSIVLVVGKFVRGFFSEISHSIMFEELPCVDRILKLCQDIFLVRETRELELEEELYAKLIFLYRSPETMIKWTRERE

GsMTx4 (from UniProt Q7YT39)
Kd (Piezo1): 155 nM

Kurtoxin (from UniProt P58910)
Kd (Cav3): 15 nM
